Laboratory results published in publication PMC4434323.

Target: klf-3 (F54H5.4) (Caenorhabditis elegans) (UniProt Q65ZG6)
Sequence (Q65ZG6 180-315): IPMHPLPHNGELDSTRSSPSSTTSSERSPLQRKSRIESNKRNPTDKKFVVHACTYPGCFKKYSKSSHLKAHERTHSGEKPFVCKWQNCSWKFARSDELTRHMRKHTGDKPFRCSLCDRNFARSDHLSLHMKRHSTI

Sequence	binding signal (PBM E-score (-0.5 to 0.5))
CCACGCCC (double strand) [8-mer CCACGCCC]	0.494
CCCCGCCC (double strand) [8-mer CCCCGCCC]	0.489
ATACGCCC (double strand) [8-mer ATACGCCC]	0.48
ACGCCCAT (double strand) [8-mer ACGCCCAT]	0.49

Target: T1, efl-2 (Y48C3A.17) (Caenorhabditis elegans) (UniProt A5HWA8)
T1 sequence: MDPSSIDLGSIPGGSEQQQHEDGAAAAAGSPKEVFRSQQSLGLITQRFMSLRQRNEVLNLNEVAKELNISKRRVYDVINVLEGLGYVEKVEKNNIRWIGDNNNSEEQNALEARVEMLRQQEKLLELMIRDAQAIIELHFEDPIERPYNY

Sequence	binding signal (PBM E-score (-0.5 to 0.5))
CGCGCGCG (double strand) [8-mer CGCGCGCG]	0.494
GCGCGCGC (double strand) [8-mer GCGCGCGC]	0.495

Target: T2, tbx-43 (Y46E12A.4) (Caenorhabditis elegans) (UniProt Q1T6W8)
T2 sequence: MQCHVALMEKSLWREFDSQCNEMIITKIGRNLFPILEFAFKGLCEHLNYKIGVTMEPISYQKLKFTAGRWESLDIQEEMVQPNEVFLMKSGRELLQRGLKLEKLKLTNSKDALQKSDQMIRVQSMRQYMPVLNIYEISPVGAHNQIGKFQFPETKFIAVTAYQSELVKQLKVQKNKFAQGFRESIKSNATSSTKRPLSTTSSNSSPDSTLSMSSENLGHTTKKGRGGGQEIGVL

Sequence	binding signal (PBM E-score (-0.5 to 0.5))
GGTGTTAA (double strand) [8-mer GGTGTTAA]	0.492

Target: T3, tbx-38 (C24H11.3) (Caenorhabditis elegans) (UniProt Q9XVD5)
T3 sequence: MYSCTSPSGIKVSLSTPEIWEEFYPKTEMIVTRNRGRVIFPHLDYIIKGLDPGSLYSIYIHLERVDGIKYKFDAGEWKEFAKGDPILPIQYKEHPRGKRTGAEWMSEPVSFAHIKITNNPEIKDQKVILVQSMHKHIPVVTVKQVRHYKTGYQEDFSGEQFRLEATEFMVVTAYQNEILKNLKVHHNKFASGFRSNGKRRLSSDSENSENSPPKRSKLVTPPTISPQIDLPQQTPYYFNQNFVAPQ

Sequence	binding signal (PBM E-score (-0.5 to 0.5))
GGTGTTAA (double strand) [8-mer GGTGTTAA]	0.488

Target: T4, dmd-6 (F13G11.1) (Caenorhabditis elegans) (UniProt O62159)
T4 sequence: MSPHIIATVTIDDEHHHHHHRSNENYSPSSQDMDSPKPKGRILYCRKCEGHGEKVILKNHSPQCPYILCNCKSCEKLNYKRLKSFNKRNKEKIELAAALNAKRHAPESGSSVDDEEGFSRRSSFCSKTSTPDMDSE

Sequence	binding signal (PBM E-score (-0.5 to 0.5))
AAATATAT (double strand) [8-mer AAATATAT]	0.48

Target: T5, Y61A9LA.9 (Y61A9LA.9) (Caenorhabditis elegans) (UniProt Q9N312)
T5 sequence: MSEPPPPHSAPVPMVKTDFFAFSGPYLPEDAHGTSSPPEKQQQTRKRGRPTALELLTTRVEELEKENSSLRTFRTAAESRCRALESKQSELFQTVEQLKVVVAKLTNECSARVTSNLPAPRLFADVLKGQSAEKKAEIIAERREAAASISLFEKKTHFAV

Sequence	binding signal (PBM E-score (-0.5 to 0.5))
AAATAATT (double strand) [8-mer AAATAATT]	0.457
AATATTAA (double strand) [8-mer AATATTAA]	0.455
TAAAATAA (double strand) [8-mer TAAAATAA]	0.453
AAATATAT (double strand) [8-mer AAATATAT]	0.452
AAATAAAT (double strand) [8-mer AAATAAAT]	0.452
AATATATT (double strand) [8-mer AATATATT]	0.465
AATAATAA (double strand) [8-mer AATAATAA]	0.461
AAAATAAT (double strand) [8-mer AAAATAAT]	0.451

Target: T6, pax-2 (K06B9.5) (Caenorhabditis elegans) (UniProt Q21263)
T6 sequence: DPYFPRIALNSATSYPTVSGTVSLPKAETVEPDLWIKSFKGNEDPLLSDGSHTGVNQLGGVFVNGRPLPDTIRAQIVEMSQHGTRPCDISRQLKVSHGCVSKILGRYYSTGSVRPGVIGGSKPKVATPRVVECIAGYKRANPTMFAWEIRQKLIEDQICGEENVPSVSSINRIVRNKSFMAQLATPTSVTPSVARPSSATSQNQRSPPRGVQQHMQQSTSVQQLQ

Sequence	binding signal (PBM E-score (-0.5 to 0.5))
GTCACGGA (double strand) [8-mer GTCACGGA]	0.453
GGCGTGAC (double strand) [8-mer GGCGTGAC]	0.468
CGTGACGA (double strand) [8-mer CGTGACGA]	0.461
ACCATGAC (double strand) [8-mer ACCATGAC]	0.454
CGTGACCA (double strand) [8-mer CGTGACCA]	0.479
GCGTGACC (double strand) [8-mer GCGTGACC]	0.486
CCGTGACC (double strand) [8-mer CCGTGACC]	0.484
ACCGTGAC (double strand) [8-mer ACCGTGAC]	0.495
CGTCACGC (double strand) [8-mer CGTCACGC]	0.488
CCGTGACG (double strand) [8-mer CCGTGACG]	0.489
CGGTCACG (double strand) [8-mer CGGTCACG]	0.473
GTCACGCA (double strand) [8-mer GTCACGCA]	0.481
AGCGTGAC (double strand) [8-mer AGCGTGAC]	0.488

Target: T7, Y44A6D.3 (Y44A6D.3) (Caenorhabditis elegans) (UniProt Q9XXE0)
T7 sequence: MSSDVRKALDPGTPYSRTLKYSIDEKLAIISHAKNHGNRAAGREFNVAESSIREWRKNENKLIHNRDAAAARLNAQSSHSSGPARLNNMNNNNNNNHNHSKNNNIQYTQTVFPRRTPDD

Sequence	binding signal (PBM E-score (-0.5 to 0.5))
CCGCGCGG (double strand) [8-mer CCGCGCGG]	0.495

Target: T8, Y75B8A.6 (Y75B8A.6) (Caenorhabditis elegans) (UniProt A0A168H365)
T8 sequence: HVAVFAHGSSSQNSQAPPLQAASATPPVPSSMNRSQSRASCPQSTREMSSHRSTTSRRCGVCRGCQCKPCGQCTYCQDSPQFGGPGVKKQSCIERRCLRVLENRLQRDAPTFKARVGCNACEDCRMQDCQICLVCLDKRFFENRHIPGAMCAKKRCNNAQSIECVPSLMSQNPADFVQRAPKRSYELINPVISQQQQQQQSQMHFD

Sequence	binding signal (PBM E-score (-0.5 to 0.5))
CGCGGCGC (double strand) [8-mer CGCGGCGC]	0.461
GCGCGCAA (double strand) [8-mer GCGCGCAA]	0.458
TCCGCGGA (double strand) [8-mer TCCGCGGA]	0.471
CCGCGCGG (double strand) [8-mer CCGCGCGG]	0.465
CGCGGAAA (double strand) [8-mer CGCGGAAA]	0.457
CGCGCGCG (double strand) [8-mer CGCGCGCG]	0.476
CGCGGAAC (double strand) [8-mer CGCGGAAC]	0.454
CCGCGGGA (double strand) [8-mer CCGCGGGA]	0.458
CGCGCGGC (double strand) [8-mer CGCGCGGC]	0.451
GCGCGCGC (double strand) [8-mer GCGCGCGC]	0.465
CCGCGGAA (double strand) [8-mer CCGCGGAA]	0.468
CCGCGCGC (double strand) [8-mer CCGCGCGC]	0.462
CCCGCGGG (double strand) [8-mer CCCGCGGG]	0.451

Test system: T9, ztf-14 (M163.2) (Caenorhabditis elegans)
T9 sequence: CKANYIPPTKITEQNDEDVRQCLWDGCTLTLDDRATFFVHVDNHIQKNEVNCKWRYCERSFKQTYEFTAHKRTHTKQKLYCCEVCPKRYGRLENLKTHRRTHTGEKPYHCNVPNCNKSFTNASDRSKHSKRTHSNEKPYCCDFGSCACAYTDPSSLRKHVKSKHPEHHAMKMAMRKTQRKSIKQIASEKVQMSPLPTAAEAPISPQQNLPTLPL

Sequence	binding signal (PBM E-score (-0.5 to 0.5))
GACCACCA (double strand) [8-mer GACCACCA]	0.454
GACCTCCC (double strand) [8-mer GACCTCCC]	0.479
GACCACAC (double strand) [8-mer GACCACAC]	0.488
GACCACCC (double strand) [8-mer GACCACCC]	0.499
ACCACCCA (double strand) [8-mer ACCACCCA]	0.469
AGGCCACC (double strand) [8-mer AGGCCACC]	0.453
GGCCACCC (double strand) [8-mer GGCCACCC]	0.494
GACCCCCC (double strand) [8-mer GACCCCCC]	0.478
ATGGGTGG (double strand) [8-mer ATGGGTGG]	0.452
GGACCACC (double strand) [8-mer GGACCACC]	0.495
AGGTGGTC (double strand) [8-mer AGGTGGTC]	0.475
AGACCACC (double strand) [8-mer AGACCACC]	0.494
AGGGTAAA (double strand) [8-mer AGGGTAAA]	0.46
ACCACCCT (double strand) [8-mer ACCACCCT]	0.463

Target: T10, ceh-52 (C07E3.5) (Caenorhabditis elegans) (UniProt Q17788)
T10 sequence: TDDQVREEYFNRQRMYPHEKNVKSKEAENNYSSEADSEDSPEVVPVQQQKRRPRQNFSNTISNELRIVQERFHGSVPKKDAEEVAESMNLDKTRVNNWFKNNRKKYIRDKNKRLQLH

Sequence	binding signal (PBM E-score (-0.5 to 0.5))
GGGGTTAA (double strand) [8-mer GGGGTTAA]	0.454
GGTGTTAA (double strand) [8-mer GGTGTTAA]	0.459
GGGAGTTA (double strand) [8-mer GGGAGTTA]	0.459
TAACTCTA (double strand) [8-mer TAACTCTA]	0.459
GAGTTATA (double strand) [8-mer GAGTTATA]	0.465
AAGAGTTA (double strand) [8-mer AAGAGTTA]	0.463
TAACTCCA (double strand) [8-mer TAACTCCA]	0.475
AGTGTTAT (double strand) [8-mer AGTGTTAT]	0.454
ATAACACC (double strand) [8-mer ATAACACC]	0.457
ATAACTCC (double strand) [8-mer ATAACTCC]	0.482
AGAGTTAT (double strand) [8-mer AGAGTTAT]	0.481
AGAGTTAA (double strand) [8-mer AGAGTTAA]	0.452
GGAGTTAA (double strand) [8-mer GGAGTTAA]	0.464
